Results published in patent US20170008943A1 (Novo Nordisk, published 2017).
*1 amine or outer side, *2 acyl side, *3 side chain or, on linkers, in order; H or OH if unused. Side-chain parts run from the residue outwards. [ ]: non-standard residue; d: D form. The star is where a group is joined. γGlu = O=C(O)[C@H](CCC(=O)[*:2])N[*:1]; Desaminohistidyl = O=C(CCc1c[nH]cn1)*; Aib = CC(C)(N)C(=O)O

Columns and labels:
human glucagon receptor [1] = target: T1, human glucagon receptor (human, UniProt P47871 26-477); test: cell-based or functional assay
human glucagon receptor [2] = target: T1, human glucagon receptor; test: displacement of 125I-glucagon from BHK membranes with human glucagon receptor (SPA), Assay (II)(b)

T1 sequence (P47871 26-477): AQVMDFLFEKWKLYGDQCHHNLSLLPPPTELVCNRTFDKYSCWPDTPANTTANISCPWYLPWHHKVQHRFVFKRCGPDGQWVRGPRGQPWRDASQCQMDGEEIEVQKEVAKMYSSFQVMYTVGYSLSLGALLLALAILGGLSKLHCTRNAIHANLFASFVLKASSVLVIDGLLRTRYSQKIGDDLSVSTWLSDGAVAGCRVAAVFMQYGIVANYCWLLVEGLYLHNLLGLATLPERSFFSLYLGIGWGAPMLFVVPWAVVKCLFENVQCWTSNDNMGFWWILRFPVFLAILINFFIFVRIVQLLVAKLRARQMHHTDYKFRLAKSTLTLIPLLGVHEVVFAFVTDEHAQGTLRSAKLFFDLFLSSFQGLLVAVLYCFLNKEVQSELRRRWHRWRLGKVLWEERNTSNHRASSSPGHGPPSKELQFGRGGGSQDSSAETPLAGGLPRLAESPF

Row | Binder | EC50 hGlucagonR (pM), CRE luciferase reporter in BHK cells (human glucagon receptor [1]) [pM] | IC50 (human glucagon receptor [2]) [nM]
1 | [Desaminohistidyl][Aib]HGTFTSDYSKYLESRRAQDFVK([γGlu-γGlu-γGlu-γGlu-Ac])WLLST-OH (SMILES CC(=O)N[C@@H](CCC(=O)N[C@@H](CCC(=O)N[C@@H](CCC(=O)N[C@@H](CCC(=O)NCCCC[C@H](NC(=O)[C@@H](NC(=O)[C@H](Cc1ccccc1)NC(=O)[C@H](CC(=O)O)NC(=O)[C@H](CCC(N)=O)NC(=O)[C@H](C)NC(=O)[C@H](CCCNC(=N)N)NC(=O)[C@H](CCCNC(=N)N)NC(=O)[C@H](CO)NC(=O)[C@H](CCC(=O)O)NC(=O)[C@H](CC(C)C)NC(=O)[C@H](Cc1ccc(O)cc1)NC(=O)[C@H](CCCCN)NC(=O)[C@H](CO)NC(=O)[C@H](Cc1ccc(O)cc1)NC(=O)[C@H](CC(=O)O)NC(=O)[C@H](CO)NC(=O)[C@@H](NC(=O)[C@H](Cc1ccccc1)NC(=O)[C@@H](NC(=O)CNC(=O)[C@H](Cc1c[nH]cn1)NC(=O)C(C)(C)NC(=O)CCc1c[nH]cn1)[C@@H](C)O)[C@@H](C)O)C(C)C)C(=O)N[C@@H](Cc1c[nH]c2ccccc12)C(=O)N[C@@H](CC(C)C)C(=O)N[C@@H](CC(C)C)C(=O)N[C@@H](CO)C(=O)N[C@H](C(=O)O)[C@@H](C)O)C(=O)O)C(=O)O)C(=O)O)C(=O)O, Imp and Aib written X under substitutions) | 5 | 1.9
2 | [Desaminohistidyl][Aib]HGTFTSDLSKYLESRRAQDFVK([γGlu-γGlu-γGlu-γGlu-Ac])WLLST-OH (SMILES CC(=O)N[C@@H](CCC(=O)N[C@@H](CCC(=O)N[C@@H](CCC(=O)N[C@@H](CCC(=O)NCCCC[C@H](NC(=O)[C@@H](NC(=O)[C@H](Cc1ccccc1)NC(=O)[C@H](CC(=O)O)NC(=O)[C@H](CCC(N)=O)NC(=O)[C@H](C)NC(=O)[C@H](CCCNC(=N)N)NC(=O)[C@H](CCCNC(=N)N)NC(=O)[C@H](CO)NC(=O)[C@H](CCC(=O)O)NC(=O)[C@H](CC(C)C)NC(=O)[C@H](Cc1ccc(O)cc1)NC(=O)[C@H](CCCCN)NC(=O)[C@H](CO)NC(=O)[C@H](CC(C)C)NC(=O)[C@H](CC(=O)O)NC(=O)[C@H](CO)NC(=O)[C@@H](NC(=O)[C@H](Cc1ccccc1)NC(=O)[C@@H](NC(=O)CNC(=O)[C@H](Cc1c[nH]cn1)NC(=O)C(C)(C)NC(=O)CCc1c[nH]cn1)[C@@H](C)O)[C@@H](C)O)C(C)C)C(=O)N[C@@H](Cc1c[nH]c2ccccc12)C(=O)N[C@@H](CC(C)C)C(=O)N[C@@H](CC(C)C)C(=O)N[C@@H](CO)C(=O)N[C@H](C(=O)O)[C@@H](C)O)C(=O)O)C(=O)O)C(=O)O)C(=O)O, Imp and Aib written X under substitutions) | 10 | 4.9
3 | [Desaminohistidyl][Aib]HGTFTSDYSKYLESRRAQDFVAWLLK([γGlu-γGlu-γGlu-γGlu-Ac])T-OH (SMILES CC(=O)N[C@@H](CCC(=O)N[C@@H](CCC(=O)N[C@@H](CCC(=O)N[C@@H](CCC(=O)NCCCC[C@H](NC(=O)[C@H](CC(C)C)NC(=O)[C@H](CC(C)C)NC(=O)[C@H](Cc1c[nH]c2ccccc12)NC(=O)[C@H](C)NC(=O)[C@@H](NC(=O)[C@H](Cc1ccccc1)NC(=O)[C@H](CC(=O)O)NC(=O)[C@H](CCC(N)=O)NC(=O)[C@H](C)NC(=O)[C@H](CCCNC(=N)N)NC(=O)[C@H](CCCNC(=N)N)NC(=O)[C@H](CO)NC(=O)[C@H](CCC(=O)O)NC(=O)[C@H](CC(C)C)NC(=O)[C@H](Cc1ccc(O)cc1)NC(=O)[C@H](CCCCN)NC(=O)[C@H](CO)NC(=O)[C@H](Cc1ccc(O)cc1)NC(=O)[C@H](CC(=O)O)NC(=O)[C@H](CO)NC(=O)[C@@H](NC(=O)[C@H](Cc1ccccc1)NC(=O)[C@@H](NC(=O)CNC(=O)[C@H](Cc1c[nH]cn1)NC(=O)C(C)(C)NC(=O)CCc1c[nH]cn1)[C@@H](C)O)[C@@H](C)O)C(C)C)C(=O)N[C@H](C(=O)O)[C@@H](C)O)C(=O)O)C(=O)O)C(=O)O)C(=O)O, Imp and Aib written X under substitutions) | 5 | 1.8
4 | [Desaminohistidyl][Aib]HGTFTSDYSKYLESRRAQEFVK([γGlu-γGlu-γGlu-γGlu-Ac])WLLST-OH (SMILES CC(=O)N[C@@H](CCC(=O)N[C@@H](CCC(=O)N[C@@H](CCC(=O)N[C@@H](CCC(=O)NCCCC[C@H](NC(=O)[C@@H](NC(=O)[C@H](Cc1ccccc1)NC(=O)[C@H](CCC(=O)O)NC(=O)[C@H](CCC(N)=O)NC(=O)[C@H](C)NC(=O)[C@H](CCCNC(=N)N)NC(=O)[C@H](CCCNC(=N)N)NC(=O)[C@H](CO)NC(=O)[C@H](CCC(=O)O)NC(=O)[C@H](CC(C)C)NC(=O)[C@H](Cc1ccc(O)cc1)NC(=O)[C@H](CCCCN)NC(=O)[C@H](CO)NC(=O)[C@H](Cc1ccc(O)cc1)NC(=O)[C@H](CC(=O)O)NC(=O)[C@H](CO)NC(=O)[C@@H](NC(=O)[C@H](Cc1ccccc1)NC(=O)[C@@H](NC(=O)CNC(=O)[C@H](Cc1c[nH]cn1)NC(=O)C(C)(C)NC(=O)CCc1c[nH]cn1)[C@@H](C)O)[C@@H](C)O)C(C)C)C(=O)N[C@@H](Cc1c[nH]c2ccccc12)C(=O)N[C@@H](CC(C)C)C(=O)N[C@@H](CC(C)C)C(=O)N[C@@H](CO)C(=O)N[C@H](C(=O)O)[C@@H](C)O)C(=O)O)C(=O)O)C(=O)O)C(=O)O, Imp and Aib written X under substitutions) | 2 | 1
5 | [Desaminohistidyl][Aib]HGTFTSDYSKYLDVRRAQDFVK([γGlu-γGlu-γGlu-γGlu-Ac])WLLST-OH (SMILES CC(=O)N[C@@H](CCC(=O)N[C@@H](CCC(=O)N[C@@H](CCC(=O)N[C@@H](CCC(=O)NCCCC[C@H](NC(=O)[C@@H](NC(=O)[C@H](Cc1ccccc1)NC(=O)[C@H](CC(=O)O)NC(=O)[C@H](CCC(N)=O)NC(=O)[C@H](C)NC(=O)[C@H](CCCNC(=N)N)NC(=O)[C@H](CCCNC(=N)N)NC(=O)[C@@H](NC(=O)[C@H](CC(=O)O)NC(=O)[C@H](CC(C)C)NC(=O)[C@H](Cc1ccc(O)cc1)NC(=O)[C@H](CCCCN)NC(=O)[C@H](CO)NC(=O)[C@H](Cc1ccc(O)cc1)NC(=O)[C@H](CC(=O)O)NC(=O)[C@H](CO)NC(=O)[C@@H](NC(=O)[C@H](Cc1ccccc1)NC(=O)[C@@H](NC(=O)CNC(=O)[C@H](Cc1c[nH]cn1)NC(=O)C(C)(C)NC(=O)CCc1c[nH]cn1)[C@@H](C)O)[C@@H](C)O)C(C)C)C(C)C)C(=O)N[C@@H](Cc1c[nH]c2ccccc12)C(=O)N[C@@H](CC(C)C)C(=O)N[C@@H](CC(C)C)C(=O)N[C@@H](CO)C(=O)N[C@H](C(=O)O)[C@@H](C)O)C(=O)O)C(=O)O)C(=O)O)C(=O)O, Imp and Aib written X under substitutions) | 2 | 0.5
6 | [Desaminohistidyl][Aib]HGTFTSDYSKYLDLRRAQDFVK([γGlu-γGlu-γGlu-γGlu-Ac])WLLST-OH (SMILES CC(=O)N[C@@H](CCC(=O)N[C@@H](CCC(=O)N[C@@H](CCC(=O)N[C@@H](CCC(=O)NCCCC[C@H](NC(=O)[C@@H](NC(=O)[C@H](Cc1ccccc1)NC(=O)[C@H](CC(=O)O)NC(=O)[C@H](CCC(N)=O)NC(=O)[C@H](C)NC(=O)[C@H](CCCNC(=N)N)NC(=O)[C@H](CCCNC(=N)N)NC(=O)[C@H](CC(C)C)NC(=O)[C@H](CC(=O)O)NC(=O)[C@H](CC(C)C)NC(=O)[C@H](Cc1ccc(O)cc1)NC(=O)[C@H](CCCCN)NC(=O)[C@H](CO)NC(=O)[C@H](Cc1ccc(O)cc1)NC(=O)[C@H](CC(=O)O)NC(=O)[C@H](CO)NC(=O)[C@@H](NC(=O)[C@H](Cc1ccccc1)NC(=O)[C@@H](NC(=O)CNC(=O)[C@H](Cc1c[nH]cn1)NC(=O)C(C)(C)NC(=O)CCc1c[nH]cn1)[C@@H](C)O)[C@@H](C)O)C(C)C)C(=O)N[C@@H](Cc1c[nH]c2ccccc12)C(=O)N[C@@H](CC(C)C)C(=O)N[C@@H](CC(C)C)C(=O)N[C@@H](CO)C(=O)N[C@H](C(=O)O)[C@@H](C)O)C(=O)O)C(=O)O)C(=O)O)C(=O)O, Imp and Aib are written X under substitutions because they have no one-letter code) | 1 | 0.2
7 | [Desaminohistidyl]SHGTFTSDYSKYLESRRAQEFVK([γGlu-γGlu-γGlu-γGlu-Ac])WLLST-OH (SMILES CC(=O)N[C@@H](CCC(=O)N[C@@H](CCC(=O)N[C@@H](CCC(=O)N[C@@H](CCC(=O)NCCCC[C@H](NC(=O)[C@@H](NC(=O)[C@H](Cc1ccccc1)NC(=O)[C@H](CCC(=O)O)NC(=O)[C@H](CCC(N)=O)NC(=O)[C@H](C)NC(=O)[C@H](CCCNC(=N)N)NC(=O)[C@H](CCCNC(=N)N)NC(=O)[C@H](CO)NC(=O)[C@H](CCC(=O)O)NC(=O)[C@H](CC(C)C)NC(=O)[C@H](Cc1ccc(O)cc1)NC(=O)[C@H](CCCCN)NC(=O)[C@H](CO)NC(=O)[C@H](Cc1ccc(O)cc1)NC(=O)[C@H](CC(=O)O)NC(=O)[C@H](CO)NC(=O)[C@@H](NC(=O)[C@H](Cc1ccccc1)NC(=O)[C@@H](NC(=O)CNC(=O)[C@H](Cc1c[nH]cn1)NC(=O)[C@H](CO)NC(=O)CCc1c[nH]cn1)[C@@H](C)O)[C@@H](C)O)C(C)C)C(=O)N[C@@H](Cc1c[nH]c2ccccc12)C(=O)N[C@@H](CC(C)C)C(=O)N[C@@H](CC(C)C)C(=O)N[C@@H](CO)C(=O)N[C@H](C(=O)O)[C@@H](C)O)C(=O)O)C(=O)O)C(=O)O)C(=O)O, Imp written X under substitutions) | 4.7 | 1.8
